Data published in patent publication US20220096653A1, “CONJUGATE COMPRISING LIGAND AND CEACAM5 ANTIBODY FAB FRAGMENT” (ASTELLAS PHARMA INC., priority 2019, published 2022).
Read-outs that look alike come from different tables or passages of the source.

What was measured:
[1] = Kidney accumulation evaluation test of Gd-labeled conjugates, normal mice (Example 4-1); conditions: for Proportion of decrease (amount of Gd contained in the kidneys): based on control conjugate Ex-No. 47, about 24 hours; for % of dose/tissue (amount of Gd contained per kidney): tail vein, 0.02 mg protein per animal, about 24 hours, ICP-MS, mean of 3 cases
Experimental: (§1) A Gd-labeled conjugate of the conjugate containing a peptide linker produced in one of the above Examples was administered from the tail vein of mice (BALB/c or BALB/c nu/nu) so that the protein mass was 0.02 mg (100 μL) per animal. After about 24 hours, the mice were sacrificed and the kidneys were removed, and the amount of Gd in the kidneys was measured using ICP-MS. The present test was carried out in 3 cases in each group, the mean value of the 3 cases was calculated, and the amount of Gd contained per kidney after administration was shown as a percentage (% of dose/tissue) of the total amount of Gd administered.
Based on the percentage of the control conjugate (% of dose/tissue), the proportion of decrease in the amount of Gd contained in the kidneys of each of the conjugates having a peptide linker was determined and shown in Table 28.

[2] = mouse, in vivo
Experimental: as §1

[3] = parameters: species or system mice (BALB/c or BALB/c nu/nu); conditions: mouse, in vivo
Experimental: as §1

[4] = parameters: species or system mice (BALB/c nu/nu); conditions: mouse, in vivo
Experimental: A Gd-labeled conjugate of the conjugate containing a peptide linker produced in one of the above Examples was administered from the tail vein of tumor-bearing mice so that the protein mass was 0.02 mg (100 μL) per animal. As the tumor-bearing mice used in the present Example, mice (BALB/c nu/nu) that were in a tumor-bearing state brought about by transplanting human colorectal cancer cell line LS174T cells (ATCC(registered trademark); CL-188) at 2.0 to 5.0×10^6 cells/mouse subcutaneously on the back before administration of the sample were used. 24 hours after administration of the sample, the mice were sacrificed, the kidneys and the tumor were removed, and the amounts of Gd in the kidneys and in the tumor were measured using ICP-MS. The present test was carried out in 3 cases in each group, and the mean value of the 3 cases was calculated. The amount of Gd contained per kidney after administration was shown as a percentage of the amount of Gd administered (% of dose/tissue), and the amount of Gd contained per g of tumor tissue was shown as a percentage of the total amount of Gd administered (% of dose/g).

[5] = molecular target: human cancer-specific MUC1 peptide; test: ELISA binding activity of anti-human MUC1 antibody Fab^5 fragment conjugates (Example 6-1); conditions: each conjugate run in duplicate; Table 52; read-out: EC50
Experimental: Each anti-human MUC1 antibody Fab^5 fragment conjugate prepared by the method of Example 5 was subjected to ELISA to evaluate the binding activity thereof to human cancer-specific MUC1. In the present test, 20×PBS/Tween 20 Buffer (Thermo Fisher Scientific Inc., 28352) diluted 20-fold with distilled water was used as a wash liquid. In addition, for bovine serum albumin (BSA) used in the present test, 30% Bovine Serum Albumin solution (Sigma-Aldrich, Inc., A9576-50ML) was added in an appropriate proportion for use. A human cancer-specific MUC1 peptide (PTL 1) at 0.5 μmol/L was added to a Nunc MaxiSorp White 384 plate (Nunc, 460372) at 30 μL per well, and the plate was incubated overnight at 4° C. for immobilization. The MUC1 peptide was removed by reverse centrifugation, and then blocking was carried out by adding a PBS/Tween 20 buffer containing 5.0% BSA. Thereafter, the blocking solution was removed by reverse centrifugation, a solution of each anti-human MUC1 antibody Fab^5 fragment conjugate (Ex-No. 104, 108, or 112) described above at about 10000 ng/mL was diluted in 14 steps by 3-fold dilution using a PBS/Tween 20 buffer containing 1.0% BSA, and 30 μL was added per well and incubated at room temperature for 60 minutes. The plate was washed 3 times with a PBS/Tween 20 buffer, and Horseradish Peroxidase-labeled goat anti-human IgK antibody (Southern Biotechnology Associates, Inc.) diluted 10000-fold using a PBS/Tween 20 buffer containing 5.0% BSA was added at 30 μL per well and incubated at room temperature for 30 minutes. The plate was washed 3 times with a PBS/Tween 20 buffer, and ECL Prime Western Blotting DETECTION Reagent (GE Healthcare, RPN2232) as a substrate was added at 30 μL per well. The substrate was incubated at room temperature for 15 minutes, and then a signal value thereof was measured using an Envision counter (PerkinElmer, Inc.).
The test for each antibody was carried out in duplicate, and the EC50 value was calculated using a 4-parameter logistic curve model.

[6] = parameters: species or system mice (BALB/c or BALB/c nu/nu); conditions: mouse, in vivo; remark: listed apart in the source
Experimental: as §1
Based on the amount of Gd contained in the kidneys of the control conjugate, the proportion of decrease in the amount of Gd contained in the kidneys of each of the conjugates having a peptide linker was determined.

[7] = parameters: species or system mice (BALB/c nu/nu); conditions: mouse, in vivo; remark: listed apart in the source
Experimental: A Gd-labeled conjugate of the conjugate containing a peptide linker produced in one of the above Examples was administered from the tail vein of the tumor-bearing mice so that the protein mass was 0.02 mg (100 μL) per animal. As the tumor-bearing mice used in the present Example, mice (BALB/c nu/nu) that were in a tumor-bearing state brought about by transplanting human breast cancer cell line MDA-MB-468 (ATCC(registered trademark); HTB-132) at 5.0×10^6 cells/mouse subcutaneously on the back before administration of the sample were used. 24 hours after administration of the sample, the mice were sacrificed, the kidneys and the tumor were removed, and the amounts of Gd in the kidneys and in the tumor were measured using ICP-MS. The present test was carried out in 3 cases in each group, and the mean value of the 3 cases was calculated. The amount of Gd contained per kidney after administration was shown as a percentage of the amount of Gd administered (% of dose/tissue), and the amount of Gd contained per g of tumor tissue was shown as a percentage of the total amount of Gd administered (% of dose/g).

Sequence of human cancer-specific MUC1 peptide (as listed by the source): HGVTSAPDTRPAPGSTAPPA

B1: [Gd/4arm-DOTA-CH2-(1,4-Ph)-NH—C(═S)—NH—CH2-(1,3-Ph)-C(═O)-Met-Gly-Lys*-Z2(#S)]p-Fab^2 (conjugate)
heavy: EVQLVESGGGLVQPGGSLRLSCAASGFNIRDTYMHWVRQAPGKGLEWVARIDPANGNSRYVPKFQGRFTISADTSRNTAYLQMNSLRAEDTAVYYCAPFGYYVSDYAMAYWGQGTLVTVSSASTKGPSVFPLAPSSKSTSGGTAALGCLVKDYFPEPVTVSWNSGALTSGVHTFPAVLQSSGLYSLSSVVTVPSSSLGTQTYICNVNHKPSNTKVDKKVEPKSCD
light: DIQLTQSPSSLSASVGDRVTITCRAGESVDIFGVGFLHWYQQKPGKAPKLLIYRASNLESGIPSRFSGSGSRTDFTLTISSLQPEDFATYYCQQTNEDPYTFGQGTKVEIKRTVAAPSVFIFPPSDEQLKSGTASVVCLLNNFYPREAKVQWKVDNALQSGNSQESVTEQDSKDSTYSLSSTLTLSKADYEKHKVYACEVTHQGLSSPVTKSFNRGEC
Proportion of decrease (amount of Gd contained in the kidneys) [1]: 72.9%
% of dose/tissue (amount of Gd contained per kidney) [1]: 8.4 % of dose/tissue

B2: [Gd/4arm-DOTA-CH2-(1,4-Ph)-NH—C(═S)-Gly-Phe-Lys*-Z2(#N)]p-Fab^2 (conjugate)
heavy: EVQLVESGGGLVQPGGSLRLSCAASGFNIRDTYMHWVRQAPGKGLEWVARIDPANGNSRYVPKFQGRFTISADTSRNTAYLQMNSLRAEDTAVYYCAPFGYYVSDYAMAYWGQGTLVTVSSASTKGPSVFPLAPSSKSTSGGTAALGCLVKDYFPEPVTVSWNSGALTSGVHTFPAVLQSSGLYSLSSVVTVPSSSLGTQTYICNVNHKPSNTKVDKKVEPKSCD
light: DIQLTQSPSSLSASVGDRVTITCRAGESVDIFGVGFLHWYQQKPGKAPKLLIYRASNLESGIPSRFSGSGSRTDFTLTISSLQPEDFATYYCQQTNEDPYTFGQGTKVEIKRTVAAPSVFIFPPSDEQLKSGTASVVCLLNNFYPREAKVQWKVDNALQSGNSQESVTEQDSKDSTYSLSSTLTLSKADYEKHKVYACEVTHQGLSSPVTKSFNRGEC
Proportion of decrease (amount of Gd contained in the kidneys) [1]: 68.0%
% of dose/tissue (amount of Gd contained per kidney) [1]: 9.9 % of dose/tissue

B3: [Gd/DOTA-NH—CH2-(1,4-Ph)-NH—C(═O)-Met-Ile-NH—(CH2)2-(A-4 and/or A-5)]p-Fab^2 (conjugate)
heavy: EVQLVESGGGLVQPGGSLRLSCAASGFNIRDTYMHWVRQAPGKGLEWVARIDPANGNSRYVPKFQGRFTISADTSRNTAYLQMNSLRAEDTAVYYCAPFGYYVSDYAMAYWGQGTLVTVSSASTKGPSVFPLAPSSKSTSGGTAALGCLVKDYFPEPVTVSWNSGALTSGVHTFPAVLQSSGLYSLSSVVTVPSSSLGTQTYICNVNHKPSNTKVDKKVEPKSCD
light: DIQLTQSPSSLSASVGDRVTITCRAGESVDIFGVGFLHWYQQKPGKAPKLLIYRASNLESGIPSRFSGSGSRTDFTLTISSLQPEDFATYYCQQTNEDPYTFGQGTKVEIKRTVAAPSVFIFPPSDEQLKSGTASVVCLLNNFYPREAKVQWKVDNALQSGNSQESVTEQDSKDSTYSLSSTLTLSKADYEKHKVYACEVTHQGLSSPVTKSFNRGEC
Renal residual amount (normal mice) % of dose/tissue [2]: 2.43 % of dose/tissue
Renal residual amount (normal mice) Proportion of decrease [2]: 92.15%

B4: [Gd/DOTA-NH—CH2-(1,4-Ph)-NH—C(═O)-Met-Ile-NH—(CH2)2-(A-3)]p-Fab^2 (conjugate)
heavy: EVQLVESGGGLVQPGGSLRLSCAASGFNIRDTYMHWVRQAPGKGLEWVARIDPANGNSRYVPKFQGRFTISADTSRNTAYLQMNSLRAEDTAVYYCAPFGYYVSDYAMAYWGQGTLVTVSSASTKGPSVFPLAPSSKSTSGGTAALGCLVKDYFPEPVTVSWNSGALTSGVHTFPAVLQSSGLYSLSSVVTVPSSSLGTQTYICNVNHKPSNTKVDKKVEPKSCD
light: DIQLTQSPSSLSASVGDRVTITCRAGESVDIFGVGFLHWYQQKPGKAPKLLIYRASNLESGIPSRFSGSGSRTDFTLTISSLQPEDFATYYCQQTNEDPYTFGQGTKVEIKRTVAAPSVFIFPPSDEQLKSGTASVVCLLNNFYPREAKVQWKVDNALQSGNSQESVTEQDSKDSTYSLSSTLTLSKADYEKHKVYACEVTHQGLSSPVTKSFNRGEC
Renal residual amount (normal mice) % of dose/tissue [2]: 1.43 % of dose/tissue
Renal residual amount (normal mice) Proportion of decrease [2]: 95.38%

B5: [Gd/DOTA]p-Fab^2 (conjugate)
heavy: EVQLVESGGGLVQPGGSLRLSCAASGFNIRDTYMHWVRQAPGKGLEWVARIDPANGNSRYVPKFQGRFTISADTSRNTAYLQMNSLRAEDTAVYYCAPFGYYVSDYAMAYWGQGTLVTVSSASTKGPSVFPLAPSSKSTSGGTAALGCLVKDYFPEPVTVSWNSGALTSGVHTFPAVLQSSGLYSLSSVVTVPSSSLGTQTYICNVNHKPSNTKVDKKVEPKSCD
light: DIQLTQSPSSLSASVGDRVTITCRAGESVDIFGVGFLHWYQQKPGKAPKLLIYRASNLESGIPSRFSGSGSRTDFTLTISSLQPEDFATYYCQQTNEDPYTFGQGTKVEIKRTVAAPSVFIFPPSDEQLKSGTASVVCLLNNFYPREAKVQWKVDNALQSGNSQESVTEQDSKDSTYSLSSTLTLSKADYEKHKVYACEVTHQGLSSPVTKSFNRGEC
Renal residual amount (normal mice) Mean [3]: 29.33 % of dose/tissue
Renal residual amount (normal mice) % of dose/tissue [2]: 31.33 % of dose/tissue
Renal residual amount (tumor-bearing mice) Mean [4]: 25.83 % of dose/tissue

B6: Ex-No 10: (Y—S1—X)p-Fab^2: Y Gd/DOTA; S1 bond; X -Met-Ile-Lys*-Z2(#N)— (conjugate)
heavy: EVQLVESGGGLVQPGGSLRLSCAASGFNIRDTYMHWVRQAPGKGLEWVARIDPANGNSRYVPKFQGRFTISADTSRNTAYLQMNSLRAEDTAVYYCAPFGYYVSDYAMAYWGQGTLVTVSSASTKGPSVFPLAPSSKSTSGGTAALGCLVKDYFPEPVTVSWNSGALTSGVHTFPAVLQSSGLYSLSSVVTVPSSSLGTQTYICNVNHKPSNTKVDKKVEPKSCD
light: DIQLTQSPSSLSASVGDRVTITCRAGESVDIFGVGFLHWYQQKPGKAPKLLIYRASNLESGIPSRFSGSGSRTDFTLTISSLQPEDFATYYCQQTNEDPYTFGQGTKVEIKRTVAAPSVFIFPPSDEQLKSGTASVVCLLNNFYPREAKVQWKVDNALQSGNSQESVTEQDSKDSTYSLSSTLTLSKADYEKHKVYACEVTHQGLSSPVTKSFNRGEC
Renal residual amount (normal mice) % of dose/tissue [3]: 20.10 % of dose/tissue
Renal residual amount (normal mice) Proportion of decrease [3]: 31.46%

B7: [Gd/DOTA-NH—CH2-(1,4-Ph)-NH—C(═O)-Met-Ile-NH—(CH2)2—Z1(#N)]p-Fab^2 (conjugate)
heavy: EVQLVESGGGLVQPGGSLRLSCAASGFNIRDTYMHWVRQAPGKGLEWVARIDPANGNSRYVPKFQGRFTISADTSRNTAYLQMNSLRAEDTAVYYCAPFGYYVSDYAMAYWGQGTLVTVSSASTKGPSVFPLAPSSKSTSGGTAALGCLVKDYFPEPVTVSWNSGALTSGVHTFPAVLQSSGLYSLSSVVTVPSSSLGTQTYICNVNHKPSNTKVDKKVEPKSCD
light: DIQLTQSPSSLSASVGDRVTITCRAGESVDIFGVGFLHWYQQKPGKAPKLLIYRASNLESGIPSRFSGSGSRTDFTLTISSLQPEDFATYYCQQTNEDPYTFGQGTKVEIKRTVAAPSVFIFPPSDEQLKSGTASVVCLLNNFYPREAKVQWKVDNALQSGNSQESVTEQDSKDSTYSLSSTLTLSKADYEKHKVYACEVTHQGLSSPVTKSFNRGEC
Renal residual amount (normal mice) % of dose/tissue [3]: 2.60 % of dose/tissue
Renal residual amount (normal mice) Proportion of decrease [3]: 91.13%
Renal residual amount (tumor-bearing mice) % of dose/tissue [4]: 5.77 % of dose/tissue
Renal residual amount (tumor-bearing mice) Proportion of decrease [4]: 77.68%

B8: [Gd/DOTA-NH—CH2-(1,4-Ph)-NH—C(═O)-Met-Ile-NH—(CH2)2-(A-4 and/or A-5)]p-Fab^5 (conjugate)
heavy: QVQLVQSGAEVKKPGASVKVSCKASGYTFTNYGLSWVRQAPGQGLEWMGENHPGSGIIYHNEKFRGRVTLTADRSTSTAYMELSSLRSEDTAVYYCARSSGTRGFDYWGQGTLVTVSSASTKGPSVFPLAPSSKSTSGGTAALGCLVKDYFPEPVTVSWNSGALTSGVHTFPAVLQSSGLYSLSSVVTVPSSSLGTQTYICNVNHKPSNTKVDKKVEPKSCD
light: DVVMTQTPLSLSVTPGQPASISCRSSQSIVHSNGNTYLEWYLQKPGQSPQLLIYRVSNRFSGVPDRFSGSGSGTDFTLKISRVEAEDVGVYYCFQGSHGPWTFGQGTKLEIKRTVAAPSVFIFPPSDEQLKSGTASVVCLLNNFYPREAKVQWKVDNALQSGNSQESVTEQDSKDSTYSLSSTLTLSKADYEKHKVYACEVTHQGLSSPVTKSFNRGEC
modifications: non-natural residues
EC50 [5]: 0.08 nM
Renal residual amount (normal mice) % of dose/tissue [6]: 2.30 % of dose/tissue
Renal residual amount (normal mice) Proportion of decrease [6]: 93.03%
Renal residual amount (tumor-bearing mice) % of dose/tissue [7]: 3.17 % of dose/tissue
Renal residual amount (tumor-bearing mice) Proportion of decrease [7]: 90.87%
